Publication PMC3900457

B1: wild-type ecdysone receptor DNA binding domain (EcRDBDWT) [Drosophila melanogaster] / ultraspiracle DNA binding domain (UspDBD) [Drosophila melanogaster] (parent)
chain 1: APRVQEELCLVCGDRASGYHYNALTCEGCKGFFRRSVTKSAVYCCKFGRACEMDMYMRRKCQECRLKKCLAVGMRPECVVPENQCAMKRREKKAQKEKDKMTTSPSSQHG
chain 2: NHPLSGSKHLCSICGDRASGKHYGVYSCEGCKGFFKRTVRKDLTYACRENRNCIIDKRQRNRCQYCRYQKCLTCGMKREAVQEERQ
B2: wild-type ecdysone receptor DNA binding domain (EcRDBDWT) [Drosophila melanogaster] / itself (parent)
chain: B1 chain 1

Variants of: B1
Experiment: EMSA
Conditions: with ultraspiracle DNA binding domain (UspDBD) [Drosophila melanogaster]; equimolar mixture of EcRDBD and UspDBD, total protein 200 nM; heterodimer complex (CIIUE) on hsp27pal DNA probe; parent: 62; read off a plot

Variant	response (% hsp27pal bound)
chain 1 V72E	42
chain 1 V72M	57
chain 1 M57W	61

Second part, the variant after the results:

response (% hsp27pal bound)	Variant
55	chain 1 C69A
58	chain 1 L24R
64	chain 1 L66F

Same assay, conditions: with ultraspiracle DNA binding domain (UspDBD) [Drosophila melanogaster]; equimolar mixture of EcRDBD and UspDBD, total protein 50 nM; heterodimer complex (CIIUE) on hsp27pal DNA probe; parent: 42; read off a plot

Variant	response (% hsp27pal bound)
chain 1 L24R M57W	45
chain 1 L24R M57W L66F	57

Further lines, results first:

response (% hsp27pal bound)	Variant
39	chain 1 L24R L66F
51	chain 1 M57W L66F

Variants of: B2
Experiment: EMSA
Conditions: with itself; total protein 50 nM; homodimer complex (CIIE) on hsp27pal DNA probe; parent: 19; read off a plot

Variant	response (% hsp27pal bound)
chain 1 L24R M57W	22
chain 1 L24R L66F	20

Continued, values first:

response (% hsp27pal bound)	Variant
31	chain 1 M57W L66F
36	chain 1 L24R M57W L66F

Same assay, conditions: with itself; total protein 200 nM; homodimer complex (CIIE) on hsp27pal DNA probe; parent: 44; read off a plot

Variant	response (% hsp27pal bound)
chain 1 M57W	42
chain 1 L24R	45
chain 1 V72M	23
chain 1 V72E	7.4

Other lines, results leading:

response (% hsp27pal bound)	Variant
39	chain 1 C69A
47	chain 1 L66F
